The values that follow come from patent publication US20110217338A1.

Test [1] concerns the target IgG b12, broadly neutralizing anti-HIV-1 gp120 antibody. As to the kind of experiment: SPR, Biacore 2000, 25 C, IgG b12 immobilized on CM5 chip (900 RU).
For test [2], the target named is b122a displayed on the surface of yeast EBY100. Put plainly: flow cytometry of yeast EBY100 displaying b122a, b12 detected with anti-human-PE.

The term Kd denotes the concentration at which binding is half-saturated. The substance Core gp120 showed a Kd in test [1] of 22 nM.
For the substance Wt gp120 (full-length HIV-1 gp120), the dissociation constant (Kd) in test [1] turned out to be 17 nM.
“IgG b12, broadly neutralizing anti-HIV-1 gp120 antibody” yielded a concentration of b12 which showed appreciable binding in test [2] of 9 µM.
